Results as given in PMC12866175 (European journal of nuclear medicine and molecular imaging, 2021).

Test: Radiation dosimetry and clearance kinetics from biodistribution data
Assay type: in vivo, BALB/c mice

What does the source list for `C[C@@H](O)[C@H](NC(=O)[C@@H]1CSSC[C@H](NC(=O)[C@@H](Cc2ccccc2)NC(=O)CN2CCN(CC(=O)O)CCN(CC(=O)O)CCN(CC(=O)O)CC2)C(=O)N[C@@H](Cc2ccc(O)cc2)C(=O)N[C@H](Cc2c[nH]c3ccccc23)C(=O)N[C@@H](CCCCN)C(=O)N[C@@H]([C@@H](C)O)C(=O)N1)C(=O)O` [[^225Ac]Ac-DOTA-TATE, metal not drawn]?
Initial activity/organ, A○ (^217At, Muscle): 0.0052 kBq; Absorbed dose/injected activity (^217At, Pancreas): 0.0003 Gy/kBq; Accumulated activity/organ, A~ (^217At, Pancreas): 1.1933 kBq×h; Decay rate constant, λeff (^217At, Pancreas): 0.0080 h⁻¹; Initial activity/organ, A○ (^217At, Pancreas): 0.0169 kBq; Absorbed dose/injected activity (^217At, Salivary): 0.0002 Gy/kBq; Accumulated activity/organ, A~ (^217At, Salivary): 0.7036 kBq×h; Decay rate constant, λeff (^217At, Salivary): -0.0028 h⁻¹; Initial activity/organ, A○ (^217At, Salivary): 0.0037 kBq; Absorbed dose/injected activity (^217At, Skin): 0.0001 Gy/kBq; Accumulated activity/organ, A~ (^217At, Skin): 0.6489 kBq×h; Decay rate constant, λeff (^217At, Skin): -0.0015 h⁻¹; Initial activity/organ, A○ (^217At, Skin): 0.0039 kBq; Absorbed dose/injected activity (^217At, Spleen): 0.0004 Gy/kBq; Accumulated activity/organ, A~ (^217At, Spleen): 1.0604 kBq×h; Decay rate constant, λeff (^217At, Spleen): 0.0030 h⁻¹; Initial activity/organ, A○ (^217At, Spleen): 0.0097 kBq; Absorbed dose/injected activity (^217At, Stomach): 0.0005 Gy/kBq; Accumulated activity/organ, A~ (^217At, Stomach): 3.0452 kBq×h; Decay rate constant, λeff (^217At, Stomach): 0.0170 h⁻¹; Absorbed dose/injected activity (^221Fr, Blood): 0.0001 Gy/kBq; Accumulated activity/organ, A~ (^221Fr, Blood): 0.5594 kBq×h; Decay rate constant, λeff (^221Fr, Blood): -0.0071 h⁻¹; Initial activity/organ, A○ (^221Fr, Blood): 0.0019 kBq; Absorbed dose/injected activity (^221Fr, Bone): 0.0003 Gy/kBq; Accumulated activity/organ, A~ (^221Fr, Bone): 1.0195 kBq×h; Decay rate constant, λeff (^221Fr, Bone): 0.0100 h⁻¹; Initial activity/organ, A○ (^221Fr, Bone): 0.0170 kBq; Absorbed dose/injected activity (^221Fr, Brain): 0.0001 Gy/kBq; Accumulated activity/organ, A~ (^221Fr, Brain): 0.7934 kBq×h; Decay rate constant, λeff (^221Fr, Brain): -0.0044 h⁻¹; Initial activity/organ, A○ (^221Fr, Brain): 0.0036 kBq; Absorbed dose/injected activity (^221Fr, Heart): 0.0000 Gy/kBq; Accumulated activity/organ, A~ (^221Fr, Heart): 0.2102 kBq×h; Decay rate constant, λeff (^221Fr, Heart): 0.0190 h⁻¹; Initial activity/organ, A○ (^221Fr, Heart): 0.0067 kBq; Absorbed dose/injected activity (^221Fr, Intestine): 0.0002 Gy/kBq; Accumulated activity/organ, A~ (^221Fr, Intestine): 7.2991 kBq×h; Decay rate constant, λeff (^221Fr, Intestine): 0.0130 h⁻¹; Absorbed dose/injected activity (^221Fr, Kidney): 0.0019 Gy/kBq; Accumulated activity/organ, A~ (^221Fr, Kidney): 12.5136 kBq×h; Decay rate constant, λeff (^221Fr, Kidney): 0.0190 h⁻¹; Initial activity/organ, A○ (^221Fr, Kidney): 0.4011 kBq; Absorbed dose/injected activity (^221Fr, Liver): 0.0014 Gy/kBq; Accumulated activity/organ, A~ (^221Fr, Liver): 32.1637 kBq×h; Decay rate constant, λeff (^221Fr, Liver): -0.0033 h⁻¹; Initial activity/organ, A○ (^221Fr, Liver): 0.1612 kBq; Absorbed dose/injected activity (^221Fr, Lung): 0.0003 Gy/kBq; Accumulated activity/organ, A~ (^221Fr, Lung): 1.7734 kBq×h; Decay rate constant, λeff (^221Fr, Lung): 0.0080 h⁻¹; Initial activity/organ, A○ (^221Fr, Lung): 0.0251 kBq; Absorbed dose/injected activity (^221Fr, Muscle): 0.0000 Gy/kBq; Accumulated activity/organ, A~ (^221Fr, Muscle): 0.1848 kBq×h; Decay rate constant, λeff (^221Fr, Muscle): 0.0170 h⁻¹; Initial activity/organ, A○ (^221Fr, Muscle): 0.0052 kBq; Absorbed dose/injected activity (^221Fr, Pancreas): 0.0003 Gy/kBq; Accumulated activity/organ, A~ (^221Fr, Pancreas): 1.1933 kBq×h; Decay rate constant, λeff (^221Fr, Pancreas): 0.0080 h⁻¹; Initial activity/organ, A○ (^221Fr, Pancreas): 0.0169 kBq; Absorbed dose/injected activity (^221Fr, Salivary): 0.0002 Gy/kBq; Accumulated activity/organ, A~ (^221Fr, Salivary): 0.7036 kBq×h; Decay rate constant, λeff (^221Fr, Salivary): -0.0028 h⁻¹; Initial activity/organ, A○ (^221Fr, Salivary): 0.0037 kBq; Absorbed dose/injected activity (^221Fr, Skin): 0.0001 Gy/kBq; Accumulated activity/organ, A~ (^221Fr, Skin): 0.6489 kBq×h; Decay rate constant, λeff (^221Fr, Skin): -0.0015 h⁻¹; Initial activity/organ, A○ (^221Fr, Skin): 0.0039 kBq; Absorbed dose/injected activity (^221Fr, Spleen): 0.0004 Gy/kBq; Accumulated activity/organ, A~ (^221Fr, Spleen): 1.0604 kBq×h; Decay rate constant, λeff (^221Fr, Spleen): 0.0030 h⁻¹; Initial activity/organ, A○ (^221Fr, Spleen): 0.0097 kBq; Absorbed dose/injected activity (^221Fr, Stomach): 0.0004 Gy/kBq; Accumulated activity/organ, A~ (^221Fr, Stomach): 3.0452 kBq×h
